Assay results reported in patent US20170224836A1 (Novartis, published 2017).

Key:
rat CDH6 on cells = molecular target: T1, rat CDH6 on cells (rat, UniProt P55280 54-789); experiment: FACS on CHO-ratCDH6 cells
T1 sequence (looked up): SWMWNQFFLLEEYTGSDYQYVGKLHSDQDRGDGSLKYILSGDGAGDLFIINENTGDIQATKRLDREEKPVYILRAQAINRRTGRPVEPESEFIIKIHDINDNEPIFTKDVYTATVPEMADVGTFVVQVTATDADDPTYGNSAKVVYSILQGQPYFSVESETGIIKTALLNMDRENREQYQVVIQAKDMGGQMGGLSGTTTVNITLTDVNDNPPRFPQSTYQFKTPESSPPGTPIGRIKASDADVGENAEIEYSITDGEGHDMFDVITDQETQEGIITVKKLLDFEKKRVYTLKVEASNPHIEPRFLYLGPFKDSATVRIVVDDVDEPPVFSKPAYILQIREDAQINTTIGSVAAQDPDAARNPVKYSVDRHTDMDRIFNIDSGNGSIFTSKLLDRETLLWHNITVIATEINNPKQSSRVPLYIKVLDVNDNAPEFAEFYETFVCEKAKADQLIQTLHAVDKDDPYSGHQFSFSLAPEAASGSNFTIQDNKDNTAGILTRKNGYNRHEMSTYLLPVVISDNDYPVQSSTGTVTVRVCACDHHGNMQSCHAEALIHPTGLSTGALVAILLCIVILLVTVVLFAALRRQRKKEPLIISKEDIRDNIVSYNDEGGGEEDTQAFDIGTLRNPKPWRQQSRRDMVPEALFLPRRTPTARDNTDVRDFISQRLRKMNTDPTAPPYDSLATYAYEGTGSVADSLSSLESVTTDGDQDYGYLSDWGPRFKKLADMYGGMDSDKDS

cynomolgus CDH6 on cells = molecular target: T2, cynomolgus CDH6 on cells (cynomolgus, UniProt A0A2K5TW62 54-790); experiment: FACS on CHO-cynoCDH6 cells
T2 sequence: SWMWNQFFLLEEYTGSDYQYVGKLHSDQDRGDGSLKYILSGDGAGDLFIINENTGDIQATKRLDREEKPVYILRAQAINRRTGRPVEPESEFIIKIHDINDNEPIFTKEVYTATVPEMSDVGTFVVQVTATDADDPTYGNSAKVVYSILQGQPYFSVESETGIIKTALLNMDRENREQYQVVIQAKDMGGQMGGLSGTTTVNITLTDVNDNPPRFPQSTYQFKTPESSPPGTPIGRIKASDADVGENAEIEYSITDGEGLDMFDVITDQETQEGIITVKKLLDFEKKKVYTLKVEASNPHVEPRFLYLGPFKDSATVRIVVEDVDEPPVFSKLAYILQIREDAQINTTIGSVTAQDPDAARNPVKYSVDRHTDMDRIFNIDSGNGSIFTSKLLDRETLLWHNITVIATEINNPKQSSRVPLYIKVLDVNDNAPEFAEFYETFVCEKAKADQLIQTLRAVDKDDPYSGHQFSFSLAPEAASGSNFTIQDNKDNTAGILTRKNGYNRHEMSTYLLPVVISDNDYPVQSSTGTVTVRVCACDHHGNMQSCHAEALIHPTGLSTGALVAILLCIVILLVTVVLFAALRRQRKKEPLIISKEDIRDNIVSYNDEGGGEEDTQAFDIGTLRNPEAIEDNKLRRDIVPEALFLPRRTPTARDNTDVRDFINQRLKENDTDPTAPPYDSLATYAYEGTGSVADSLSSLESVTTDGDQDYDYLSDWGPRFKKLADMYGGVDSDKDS

human CDH6 on cells = molecular target: T3, human CDH6 on cells (human, UniProt P55285 54-790); experiment: FACS on OVCAR3 cells
T3 sequence: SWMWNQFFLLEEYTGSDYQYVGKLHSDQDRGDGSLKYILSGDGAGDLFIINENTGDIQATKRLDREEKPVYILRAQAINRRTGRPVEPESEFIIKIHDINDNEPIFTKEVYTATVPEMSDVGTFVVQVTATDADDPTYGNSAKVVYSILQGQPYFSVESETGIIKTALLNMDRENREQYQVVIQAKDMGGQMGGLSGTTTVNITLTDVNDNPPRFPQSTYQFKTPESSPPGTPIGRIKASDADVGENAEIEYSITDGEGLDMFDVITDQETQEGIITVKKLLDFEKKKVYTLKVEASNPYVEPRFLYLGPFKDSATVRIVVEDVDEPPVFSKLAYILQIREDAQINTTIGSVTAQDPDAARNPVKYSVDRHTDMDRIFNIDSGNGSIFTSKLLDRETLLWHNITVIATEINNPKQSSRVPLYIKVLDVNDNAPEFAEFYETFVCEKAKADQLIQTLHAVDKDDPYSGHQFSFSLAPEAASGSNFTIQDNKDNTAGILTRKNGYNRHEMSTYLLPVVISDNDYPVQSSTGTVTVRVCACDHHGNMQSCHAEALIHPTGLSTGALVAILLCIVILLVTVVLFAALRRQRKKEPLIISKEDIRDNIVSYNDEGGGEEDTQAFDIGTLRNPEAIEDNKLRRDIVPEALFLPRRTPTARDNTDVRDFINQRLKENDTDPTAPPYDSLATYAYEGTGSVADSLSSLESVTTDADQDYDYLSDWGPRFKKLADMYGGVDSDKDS

B1: NOV0712 (antibody, human IgG1, kappa, V domains shown)
VH: QVQLLESGGGLVQPGGSLRLSCAASGFTFSSHGMHWVRQAPGKGLEWVSVISGSGSNTGYADSVKGRFTISRDNSKNTLYLQMNSLRAEDTAVYYCARQWGSYAFDSWGQGTLVTVSS
VL: DIQMTQSPSSLSASVGDRVTITCRASQSISSYLNWYQQKPGKAPKLLIYAVSTLQSGVPSRFSGSGSGTDFTLTISSLQPEDFATYYCQQSGTFPPTTFGQGTKVEIKR
- EC50 (read off the curve) (rat CDH6 on cells): ~1 nM
- EC50 (read off the curve) (cynomolgus CDH6 on cells): ~1 nM
- EC50 (read off the curve) (human CDH6 on cells): ~0.4 nM
